Results reported in the supplement of paper PMC9112550, “Optimization of the antimicrobial peptide Bac7 by deep mutational scanning” (BMC Biology, 2022).

System: Escherichia coli TOP10
Assay: shrunken log2 fold change of peptide-encoding DNA abundance (4.5 h post-induction vs induction); higher = less antimicrobial activity (less host growth inhibition)
Conditions: time post-induction: 4.5 h; library: site-saturation at positions 5, 18, 19, 20
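Also: peptides expressed intracellularly from a pBAD plasmid library in pooled LB shake-flask culture, induced with 0.3% L-arabinose, DNA abundance read by NGS, three biological replicates, DESeq2 with apeglm shrinkage.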

Sequence	shrunken log2 fold change
RRIRPRPPRLPRPRPRPGIFPRP	0.0736
RRIRHRPPRLPRPRPRPNKCPRP	-0.431
RRIRPRPPRLPRPRPRPCREPRP	-0.075
RRIRPRPPRLPRPRPRPMMPPRP	-0.141
RRIRNRPPRLPRPRPRPTTLPRP	-0.294
RRIRRRPPRLPRPRPRPGSGPRP	0.407
RRIRSRPPRLPRPRPRPECSPRP	0.201
RRIRMRPPRLPRPRPRPFVQPRP	-0.216
RRIRPRPPRLPRPRPRPLQVPRP	0.013
RRIRFRPPRLPRPRPRPHGRPRP	0.187
RRIRTRPPRLPRPRPRPTFSPRP	-0.169
RRIRCRPPRLPRPRPRPTCNPRP	-0.265
RRIRTRPPRLPRPRPRPFFIPRP	-0.518
RRIRNRPPRLPRPRPRPCNNPRP	-0.0122
RRIRHRPPRLPRPRPRPTHFPRP	0.176
RRIRMRPPRLPRPRPRPHNLPRP	-0.0351
RRIRHRPPRLPRPRPRPKMFPRP	-0.0772
RRIRLRPPRLPRPRPRPNVGPRP	0.0116
RRIRTRPPRLPRPRPRPFPPPRP	-0.0137
RRIRCRPPRLPRPRPRPDHYPRP	-0.211
RRIRMRPPRLPRPRPRPKRCPRP	0.211
RRIRKRPPRLPRPRPRPLGMPRP	0.11
RRIRFRPPRLPRPRPRPKMTPRP	-0.173
RRIRWRPPRLPRPRPRPCATPRP	0.183
RRIRSRPPRLPRPRPRPTMNPRP	-0.225

Sequence	shrunken log2 fold change
RRIRGRPPRLPRPRPRPHNQPRP	0.05
RRIRERPPRLPRPRPRPSYGPRP	-0.708
RRIRQRPPRLPRPRPRPNYFPRP	-0.149
RRIRCRPPRLPRPRPRPSWLPRP	-0.547
RRIRQRPPRLPRPRPRPGFCPRP	0.159
RRIRQRPPRLPRPRPRPSYDPRP	-0.251
RRIRDRPPRLPRPRPRPGGRPRP	0.569
RRIRLRPPRLPRPRPRPSVLPRP	-0.779
RRIRTRPPRLPRPRPRPMLQPRP	0.00738
RRIRCRPPRLPRPRPRPYDSPRP	0.00489
RRIRMRPPRLPRPRPRPGHWPRP	0.263
RRIRFRPPRLPRPRPRPICKPRP	-0.0703
RRIRQRPPRLPRPRPRPCGLPRP	0.131
RRIRFRPPRLPRPRPRPNSAPRP	-0.603
RRIRGRPPRLPRPRPRPKYWPRP	1.13
RRIRGRPPRLPRPRPRPPQGPRP	0.812
RRIRRRPPRLPRPRPRPPNTPRP	0.884
RRIRWRPPRLPRPRPRPANLPRP	-0.285
RRIRTRPPRLPRPRPRPDPGPRP	0.0486
RRIRIRPPRLPRPRPRPMHRPRP	-0.262
RRIRARPPRLPRPRPRPVNHPRP	-0.298
RRIRYRPPRLPRPRPRPNPAPRP	0.0854
RRIRSRPPRLPRPRPRPFEKPRP	0.00827
RRIRIRPPRLPRPRPRPQRKPRP	-0.104
RRIRIRPPRLPRPRPRPKKNPRP	-0.249

Sequence	shrunken log2 fold change
RRIRQRPPRLPRPRPRPSAVPRP	-0.126
RRIRWRPPRLPRPRPRPLVFPRP	0.0454
RRIRTRPPRLPRPRPRPGPNPRP	-0.0314
RRIRYRPPRLPRPRPRPIYIPRP	-0.673
RRIRERPPRLPRPRPRPVCWPRP	0.337
RRIRMRPPRLPRPRPRPPKPPRP	0.717
RRIRMRPPRLPRPRPRPGKTPRP	0.769
RRIRTRPPRLPRPRPRPDFRPRP	0.0337
RRIRERPPRLPRPRPRPQLAPRP	0.00697
RRIRQRPPRLPRPRPRPRYFPRP	-0.247
RRIRDRPPRLPRPRPRPLSKPRP	0.132
RRIRWRPPRLPRPRPRPWPVPRP	0.502
RRIRDRPPRLPRPRPRPNYSPRP	-0.792
RRIRLRPPRLPRPRPRPVGPPRP	0.163
RRIRGRPPRLPRPRPRPFMDPRP	-0.000933
RRIRVRPPRLPRPRPRPPVHPRP	-0.0509
RRIRERPPRLPRPRPRPQQTPRP	-0.0895
RRIRLRPPRLPRPRPRPPPRPRP	1.66
RRIRYRPPRLPRPRPRPTHLPRP	-0.0864
RRIRRRPPRLPRPRPRPFSTPRP	-0.0277
RRIRGRPPRLPRPRPRPTMQPRP	0.907
RRIRTRPPRLPRPRPRPLEVPRP	-0.00296
RRIRSRPPRLPRPRPRPPKYPRP	-0.164
RRIRFRPPRLPRPRPRPGWLPRP	0.129
RRIRHRPPRLPRPRPRPGDKPRP	-0.0257

Sequence	shrunken log2 fold change
RRIRGRPPRLPRPRPRPTGTPRP	0.517
RRIRARPPRLPRPRPRPDAHPRP	0.876
RRIRFRPPRLPRPRPRPRLAPRP	0.69
RRIRPRPPRLPRPRPRPVVGPRP	0.212
RRIRYRPPRLPRPRPRPRQAPRP	0.0877
RRIRWRPPRLPRPRPRPTMKPRP	-0.0612
RRIRTRPPRLPRPRPRPAQYPRP	0.105
RRIRWRPPRLPRPRPRPEGRPRP	0.65
RRIRIRPPRLPRPRPRPQRLPRP	0.0966
RRIRARPPRLPRPRPRPLEFPRP	0.231
RRIRERPPRLPRPRPRPEGDPRP	0.0441
RRIRGRPPRLPRPRPRPRMIPRP	0.646
RRIRKRPPRLPRPRPRPYRMPRP	-0.329
RRIRHRPPRLPRPRPRPKWMPRP	-0.123
RRIRYRPPRLPRPRPRPNKKPRP	-0.298
RRIRARPPRLPRPRPRPFLNPRP	-0.248
RRIRERPPRLPRPRPRPWTYPRP	-0.104
RRIRYRPPRLPRPRPRPNHKPRP	-1.3
RRIRDRPPRLPRPRPRPMMLPRP	-0.0234
RRIRKRPPRLPRPRPRPNMTPRP	0.0525
RRIRFRPPRLPRPRPRPMGDPRP	-0.0467
RRIRPRPPRLPRPRPRPTCLPRP	-0.105
RRIRARPPRLPRPRPRPLGYPRP	0.223
RRIRERPPRLPRPRPRPPSWPRP	-0.2
RRIRIRPPRLPRPRPRPWWDPRP	-0.309

Sequence	shrunken log2 fold change
RRIRYRPPRLPRPRPRPCGVPRP	2.83
RRIRHRPPRLPRPRPRPLTIPRP	-0.207
RRIRMRPPRLPRPRPRPAEGPRP	0.265
RRIRFRPPRLPRPRPRPPWPPRP	0.564
RRIRNRPPRLPRPRPRPPVGPRP	0.444
RRIRNRPPRLPRPRPRPRVNPRP	-0.0734
RRIRFRPPRLPRPRPRPRGNPRP	-0.0828
RRIRGRPPRLPRPRPRPGDGPRP	0.895
RRIRPRPPRLPRPRPRPSWYPRP	-0.698
RRIRGRPPRLPRPRPRPPFPPRP	1.17
RRIRCRPPRLPRPRPRPGWNPRP	-0.243
RRIRFRPPRLPRPRPRPNIHPRP	-0.814
RRIRQRPPRLPRPRPRPRPSPRP	0.112
RRIRKRPPRLPRPRPRPPGNPRP	0.712
RRIRTRPPRLPRPRPRPYAQPRP	-0.495
RRIRSRPPRLPRPRPRPSEAPRP	0.121
RRIRMRPPRLPRPRPRPQLYPRP	0.284
RRIRRRPPRLPRPRPRPYWDPRP	-0.247
RRIRNRPPRLPRPRPRPDFMPRP	-0.138
RRIRMRPPRLPRPRPRPFVDPRP	-0.338
RRIRVRPPRLPRPRPRPLNHPRP	-0.17
RRIRMRPPRLPRPRPRPISIPRP	-0.313
RRIRDRPPRLPRPRPRPCKAPRP	-0.0139
RRIRMRPPRLPRPRPRPYWWPRP	0.0238
RRIRIRPPRLPRPRPRPYSPPRP	-0.0324

Sequence	shrunken log2 fold change
RRIRHRPPRLPRPRPRPLVPPRP	-0.0575
RRIRTRPPRLPRPRPRPTASPRP	0.0344
RRIRARPPRLPRPRPRPWCHPRP	-0.0135
RRIRCRPPRLPRPRPRPDKAPRP	-0.0544
RRIRWRPPRLPRPRPRPTNRPRP	-0.018
RRIRVRPPRLPRPRPRPRDTPRP	-0.0483
RRIRPRPPRLPRPRPRPDEVPRP	0.188
RRIRGRPPRLPRPRPRPVCHPRP	0.54
RRIRGRPPRLPRPRPRPTVLPRP	0.564
RRIRERPPRLPRPRPRPWIHPRP	0.105
RRIRGRPPRLPRPRPRPTHPPRP	0.868
RRIRIRPPRLPRPRPRPKWIPRP	-0.77
RRIRKRPPRLPRPRPRPTAFPRP	0.355
RRIRSRPPRLPRPRPRPVFGPRP	0.0263
RRIRVRPPRLPRPRPRPQMYPRP	-0.436
RRIRSRPPRLPRPRPRPYAEPRP	-0.235
RRIRKRPPRLPRPRPRPAHPPRP	0.711
RRIRNRPPRLPRPRPRPEDPPRP	0.00956
RRIRKRPPRLPRPRPRPSTNPRP	0.0826
RRIRPRPPRLPRPRPRPTVAPRP	0.277
RRIRSRPPRLPRPRPRPVCIPRP	-0.414
RRIRGRPPRLPRPRPRPMFWPRP	0.336
RRIRWRPPRLPRPRPRPLDYPRP	-0.314
RRIRIRPPRLPRPRPRPALEPRP	-0.0629
RRIRSRPPRLPRPRPRPCWVPRP	-0.272
